The assay has as its target esr1_human ESR1 (UniProt P03372).

Sequence of esr1_human ESR1 (P03372 whole entry): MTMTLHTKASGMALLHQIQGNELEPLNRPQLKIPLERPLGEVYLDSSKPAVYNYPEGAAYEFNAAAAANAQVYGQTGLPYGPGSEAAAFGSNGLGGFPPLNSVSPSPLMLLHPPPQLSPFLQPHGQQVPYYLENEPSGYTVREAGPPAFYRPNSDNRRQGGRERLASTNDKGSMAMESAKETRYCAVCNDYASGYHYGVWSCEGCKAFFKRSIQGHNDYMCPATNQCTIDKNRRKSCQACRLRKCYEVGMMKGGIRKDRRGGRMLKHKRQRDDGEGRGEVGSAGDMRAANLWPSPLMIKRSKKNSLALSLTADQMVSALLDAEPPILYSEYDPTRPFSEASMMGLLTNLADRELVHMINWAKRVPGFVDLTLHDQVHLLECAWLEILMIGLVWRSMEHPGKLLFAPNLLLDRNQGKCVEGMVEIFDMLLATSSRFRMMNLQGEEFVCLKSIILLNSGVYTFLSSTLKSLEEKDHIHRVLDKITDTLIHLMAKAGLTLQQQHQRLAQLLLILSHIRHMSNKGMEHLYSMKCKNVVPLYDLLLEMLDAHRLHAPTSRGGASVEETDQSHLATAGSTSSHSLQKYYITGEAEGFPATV

With “Nuclear receptor coactivator 2 (Homo sapiens), Q15596 L644A;L645A;L693A;L694A;L748A;L749A”, the “effect of a mutation on the interaction” value was “disrupting interaction”.

The values are drawn from IntAct's records for PubMed 11265755.
